Assay results published in paper PMC3019263 (Archives of biochemistry and biophysics, 2010).

Molecular target: the molecule itself
Assay: SEC

B1: PheH117, the regulatory domain of rat phenylalanine hydroxylase, lacking residues after Thr117 (domain or fragment, UniProt P04176 1-117, looked up)
chain: MAAVVLENGVLSRKLSDFGQETSYIEDNSNQNGAISLIFSLKEEVGALAKVLRLFEENDINLTHIESRPSRLNKDEYEFFTYLDKRTKPVLGSIIKSLRNDIGATVHELSRDKEKNT
With B1 as the protein, how does the “stoichiometry N” value read?
The value was 2.
